The values below come from patent publication US20090252748A1.

Experiment [1] deals with human Sp35 protein expressed on transfected cells (human) (UniProt Q96FE5). As to the kind of experiment: FACS, live human LINGO-1 transfected 293 cells, PE-labelled secondary antibody without primary antibody, FL2-H; Cell only 0.94 [panel 2nd Ab only].
Experiment [2] has the same target. Put plainly: FACS, live human LINGO-1 transfected 293 cells, PE-labelled secondary antibody without primary antibody, FL2-H; Cell only 4.47 [panel 2nd Ab only].
For experiment [3] the target is unchanged. As to the kind of experiment: FACS, live human LINGO-1 transfected 293 cells, PE-labelled secondary antibody without primary antibody, FL2-H; Cell only 4.71 [panel 2nd Ab only].
The target is the same in experiment [4]. Put plainly: FACS, live human LINGO-1 transfected 293 cells, PE-labelled secondary antibody without primary antibody, FL2-H; Cell only 5.81 [panel 2nd Ab only].
A further experiment has as its target CD32. As to the kind of experiment: CD32 binding assay, format not described.

Sequence of human Sp35 protein expressed on transfected cells (human) (Q96FE5 40-620): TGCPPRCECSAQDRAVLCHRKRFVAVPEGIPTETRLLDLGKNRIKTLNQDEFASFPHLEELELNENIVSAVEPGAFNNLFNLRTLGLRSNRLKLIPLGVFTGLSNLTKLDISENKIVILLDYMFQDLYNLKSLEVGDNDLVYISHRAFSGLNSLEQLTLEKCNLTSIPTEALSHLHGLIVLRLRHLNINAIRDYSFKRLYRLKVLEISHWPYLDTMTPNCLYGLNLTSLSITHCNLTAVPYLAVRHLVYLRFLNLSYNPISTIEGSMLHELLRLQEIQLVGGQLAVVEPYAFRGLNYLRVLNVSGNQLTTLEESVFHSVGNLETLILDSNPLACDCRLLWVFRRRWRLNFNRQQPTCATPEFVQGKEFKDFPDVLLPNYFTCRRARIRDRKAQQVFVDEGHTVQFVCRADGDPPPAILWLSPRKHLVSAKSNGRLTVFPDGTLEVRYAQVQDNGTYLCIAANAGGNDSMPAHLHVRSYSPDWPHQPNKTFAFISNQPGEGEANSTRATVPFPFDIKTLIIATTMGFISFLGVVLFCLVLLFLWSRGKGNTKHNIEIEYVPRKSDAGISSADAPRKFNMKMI

With “2nd Ab only (PE-labelled secondary antibody without primary antibody)”, the number over the marker gate of the FL2-H histogram in experiment [1] is 5.52. In experiment [2], this substance yielded a (FL2-H) Geom. Mean of 6.6. For the same substance, the (FL2-H) Median in experiment [3] is 6.76. The substance further had a (FL2-H) Mean in experiment [4] of 8.78.
Substance Li33Ig2 wt (antibody) registered an IC50 with CD32 of 4.3 µg/mL.
The same measure, in the same setting: to Li33Ig2 agly (antibody) belongs 25 µg/mL.
